B1: Pistol ribozyme (parent)
chain: GGGUCGUUGUUCCAUAAUCGCGUGGAUAUGGCACGCAAGUUUCUACCGGGCACCGUAAAUGUCCGACUGGAGCCGUUCGGGCGGCUAUAAACAGACCUCAGGCCCGAAGCGUGGCGGCACCUGCCGCCGGUGGUAAAAAAGAUCGGAAGAGCACACGUCU

Variants of: B1
Test: aptazyme ON/OFF ratio, guanine; higher = stronger switching; co-transcriptional cleavage with and without guanine

First: GGGUCGCCGCGAGAUAAUCGCGUGGAUAUGGCACGCAAGUUUCUACCGGGCACCGUAAAUGUCCGACUGGAGCCGUUCGGGCGGCUAUAAACAGACCUCAGGCCCGAAGCGUGGCGGCACCUGCCGCCGGUGGUAAAAAAGAUCGGAAGAGCACACGUCU [U7C U8C U10C U11G C12A C13G]
Second: GGGUCGUUGGGGGAUAAUCGCGUGGAUAUGGCACGCAAGUUUCUACCGGGCACCGUAAAUGUCCGACUGGAGCCGUUCGGGCGGCUAUAAACAGACCUCAGGCCCGAAGCGUGGCGGCACCUGCCGCCGGUGGUAAAAAAGAUCGGAAGAGCACACGUCU [U10G U11G C12G C13G]
The “aptazyme ON/OFF ratio” value of the first is higher: 1.27 for the first, 1.18 for the second.

GGGUCGGCCGUGCAUAAUCGCGUGGAUAUGGCACGCAAGUUUCUACCGGGCACCGUAAAUGUCCGACUGGAGCCGUUCGGGCGGCUAUAAACAGACCUCAGGCCCGAAGCGUGGCGGCACCUGCCGCCGGUGGUAAAAAAGAUCGGAAGAGCACACGUCU [U7G U8C G9C U10G C12G] and GGGUCGACAACUAAUAAUCGCGUGGAUAUGGCACGCAAGUUUCUACCGGGCACCGUAAAUGUCCGACUGGAGCCGUUCGGGCGGCUAUAAACAGACCUCAGGCCCGAAGCGUGGCGGCACCUGCCGCCGGUGGUAAAAAAGAUCGGAAGAGCACACGUCU [U7A U8C G9A U10A U11C C12U C13A] are the same in “aptazyme ON/OFF ratio” value: 1.12 for the first, 1.12 for the second.

Compared with GGGUCGCAGAUAUAUAAUCGCGUGGAUAUGGCACGCAAGUUUCUACCGGGCACCGUAAAUGUCCGACUGGAGCCGUUCGGGCGGCUAUAAACAGACCUCAGGCCCGAAGCGUGGCGGCACCUGCCGCCGGUGGUAAAAAAGAUCGGAAGAGCACACGUCU [U7C U8A U10A C12A C13U], GGGUCGAUAGUGGAUAAUCGCGUGGAUAUGGCACGCAAGUUUCUACCGGGCACCGUAAAUGUCCGACUGGAGCCGUUCGGGCGGCUAUAAACAGACCUCAGGCCCGAAGCGUGGCGGCACCUGCCGCCGGUGGUAAAAAAGAUCGGAAGAGCACACGUCU [U7A G9A U10G C12G C13G] is lower in “aptazyme ON/OFF ratio” value: 1.15 for the first, 1.11 for the second.

Compared with GGGUCGGACAGCAAUAAUCGCGUGGAUAUGGCACGCAAGUUUCUACCGGGCACCGUAAAUGUCCGACUGGAGCCGUUCGGGCGGCUAUAAACAGACCUCAGGCCCGAAGCGUGGCGGCACCUGCCGCCGGUGGUAAAAAAGAUCGGAAGAGCACACGUCU [U7G U8A G9C U10A U11G C13A], GGGUCGUUUACGCAUAAUCGCGUGGAUAUGGCACGCAAGUUUCUACCGGGCACCGUAAAUGUCCGACUGGAGCCGUUCGGGCGGCUAUAAACAGACCUCAGGCCCGAAGCGUGGCGGCACCUGCCGCCGGUGGUAAAAAAGAUCGGAAGAGCACACGUCU [G9U U10A U11C C12G] is higher in “aptazyme ON/OFF ratio” value: 1.02 for the first, 1.57 for the second.

Going from GGGUCGUUGCGUAAUAAUCGCGUGGAUAUGGCACGCAAGUUUCUACCGGGCACCGUAAAUGUCCGACUGGAGCCGUUCGGGCGGCUAUAAACAGACCUCAGGCCCGAAGCGUGGCGGCACCUGCCGCCGGUGGUAAAAAAGAUCGGAAGAGCACACGUCU [U10C U11G C12U C13A] to GGGUCGACGGCAUAUAAUCGCGUGGAUAUGGCACGCAAGUUUCUACCGGGCACCGUAAAUGUCCGACUGGAGCCGUUCGGGCGGCUAUAAACAGACCUCAGGCCCGAAGCGUGGCGGCACCUGCCGCCGGUGGUAAAAAAGAUCGGAAGAGCACACGUCU [U7A U8C U10G U11C C12A C13U], the “aptazyme ON/OFF ratio” value rises from 1.36 to 1.39.

First: GGGUCGCAUGGUGAUAAUCGCGUGGAUAUGGCACGCAAGUUUCUACCGGGCACCGUAAAUGUCCGACUGGAGCCGUUCGGGCGGCUAUAAACAGACCUCAGGCCCGAAGCGUGGCGGCACCUGCCGCCGGUGGUAAAAAAGAUCGGAAGAGCACACGUCU [U7C U8A G9U U10G U11G C12U C13G]
Second: GGGUCGGCAUUGGAUAAUCGCGUGGAUAUGGCACGCAAGUUUCUACCGGGCACCGUAAAUGUCCGACUGGAGCCGUUCGGGCGGCUAUAAACAGACCUCAGGCCCGAAGCGUGGCGGCACCUGCCGCCGGUGGUAAAAAAGAUCGGAAGAGCACACGUCU [U7G U8C G9A C12G C13G]
The “aptazyme ON/OFF ratio” value of the first is higher: 1.15 for the first, 1.04 for the second.

First: GGGUCGCGCCUAAAUAAUCGCGUGGAUAUGGCACGCAAGUUUCUACCGGGCACCGUAAAUGUCCGACUGGAGCCGUUCGGGCGGCUAUAAACAGACCUCAGGCCCGAAGCGUGGCGGCACCUGCCGCCGGUGGUAAAAAAGAUCGGAAGAGCACACGUCU [U7C U8G G9C U10C C12A C13A]
Second: GGGUCGUAGGGCGAUAAUCGCGUGGAUAUGGCACGCAAGUUUCUACCGGGCACCGUAAAUGUCCGACUGGAGCCGUUCGGGCGGCUAUAAACAGACCUCAGGCCCGAAGCGUGGCGGCACCUGCCGCCGGUGGUAAAAAAGAUCGGAAGAGCACACGUCU [U8A U10G U11G C13G]
The “aptazyme ON/OFF ratio” value of the first is lower: 1.06 for the first, 1.28 for the second.

First: GGGUCGCGAGGGGAUAAUCGCGUGGAUAUGGCACGCAAGUUUCUACCGGGCACCGUAAAUGUCCGACUGGAGCCGUUCGGGCGGCUAUAAACAGACCUCAGGCCCGAAGCGUGGCGGCACCUGCCGCCGGUGGUAAAAAAGAUCGGAAGAGCACACGUCU [U7C U8G G9A U10G U11G C12G C13G]
Second: GGGUCGUCGCCUAAUAAUCGCGUGGAUAUGGCACGCAAGUUUCUACCGGGCACCGUAAAUGUCCGACUGGAGCCGUUCGGGCGGCUAUAAACAGACCUCAGGCCCGAAGCGUGGCGGCACCUGCCGCCGGUGGUAAAAAAGAUCGGAAGAGCACACGUCU [U8C U10C U11C C12U C13A]
The “aptazyme ON/OFF ratio” value of the first is lower: 1.03 for the first, 1.23 for the second.

First: GGGUCGUAUGUCCAUAAUCGCGUGGAUAUGGCACGCAAGUUUCUACCGGGCACCGUAAAUGUCCGACUGGAGCCGUUCGGGCGGCUAUAAACAGACCUCAGGCCCGAAGCGUGGCGGCACCUGCCGCCGGUGGUAAAAAAGAUCGGAAGAGCACACGUCU [U8A G9U U10G]
Second: GGGUCGAGUUCAGAUAAUCGCGUGGAUAUGGCACGCAAGUUUCUACCGGGCACCGUAAAUGUCCGACUGGAGCCGUUCGGGCGGCUAUAAACAGACCUCAGGCCCGAAGCGUGGCGGCACCUGCCGCCGGUGGUAAAAAAGAUCGGAAGAGCACACGUCU [U7A U8G G9U U11C C12A C13G]
The “aptazyme ON/OFF ratio” value of the first is higher: 1.61 for the first, 1.12 for the second.

Source: the RNAGym collection of RNA variant scans (doi:10.1021/acssynbio.7b00057)
